Assays:
Test in all cases: SPR (Biacore T200); receptor immobilized directly on CM5 chip, antibody as analyte at 4.7 µM
[1] = molecular target: Recombinant Human Fc gamma RIIA/CD32a (R167) Protein (R&D Systems), His-tagged (human) (UniProt P12318)
[2] = molecular target: Recombinant Human Fc gamma RIIB/C (CD32b/c) Protein (R&D Systems), His-tagged (human) (UniProt P31994)
[3] = molecular target: Recombinant Human Fc gamma RIIIA/CD16a protein (R&D Systems), His-tagged (human) (UniProt P08637)
[4] = molecular target: Recombinant Human Fc gamma RIIIB/CD16b Protein (R&D Systems), His-tagged (human) (UniProt O75015)
Recombinant Human Fc gamma RIIIB/CD16b Protein (R&D Systems), His-tagged (human), sequence (O75015 other isoform, or with tags, fused parts or gaps): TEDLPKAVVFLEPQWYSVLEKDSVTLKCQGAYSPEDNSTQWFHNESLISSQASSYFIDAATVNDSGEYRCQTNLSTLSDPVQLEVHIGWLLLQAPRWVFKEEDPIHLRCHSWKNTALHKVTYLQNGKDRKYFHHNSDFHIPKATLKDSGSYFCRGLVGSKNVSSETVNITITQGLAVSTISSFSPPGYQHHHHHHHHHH

Recombinant Human Fc gamma RIIA/CD32a (R167) Protein (R&D Systems), His-tagged (human), sequence (P12318 other isoform, or with tags, fused parts or gaps): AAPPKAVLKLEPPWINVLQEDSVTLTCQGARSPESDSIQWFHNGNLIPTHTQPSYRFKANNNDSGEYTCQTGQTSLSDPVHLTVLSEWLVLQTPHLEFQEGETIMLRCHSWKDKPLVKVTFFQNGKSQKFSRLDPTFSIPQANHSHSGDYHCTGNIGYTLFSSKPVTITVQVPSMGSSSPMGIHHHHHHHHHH
Recombinant Human Fc gamma RIIB/C (CD32b/c) Protein (R&D Systems), His-tagged (human), sequence (P31994 other isoform, or with tags, fused parts or gaps): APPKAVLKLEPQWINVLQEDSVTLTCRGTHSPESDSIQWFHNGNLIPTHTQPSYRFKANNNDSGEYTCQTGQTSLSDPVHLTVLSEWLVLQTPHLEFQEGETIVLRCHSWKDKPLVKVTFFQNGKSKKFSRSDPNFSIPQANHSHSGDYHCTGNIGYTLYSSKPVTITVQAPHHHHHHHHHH
Recombinant Human Fc gamma RIIIA/CD16a protein (R&D Systems), His-tagged (human), sequence (P08637 other isoform, or with tags, fused parts or gaps): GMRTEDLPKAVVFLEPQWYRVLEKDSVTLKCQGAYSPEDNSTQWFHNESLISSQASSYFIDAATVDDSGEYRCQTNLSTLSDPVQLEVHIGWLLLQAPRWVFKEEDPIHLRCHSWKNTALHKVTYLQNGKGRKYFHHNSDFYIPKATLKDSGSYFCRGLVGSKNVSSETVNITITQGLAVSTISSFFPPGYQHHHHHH

Row | binding response (RU) [1] | binding response (RU) [2] | binding response (RU) [3] | binding response (RU) [4] | Substance
1 | 8.3 RU |  |  |  | LALA-DG variant of the anti-CD70 antibody vorsetuzumab (IgG1)
2 | 64 RU | 18 RU | 100 RU | 4.5 RU | LALA variant of the anti-CD70 antibody vorsetuzumab (IgG1)

Reference: patent publication US20240239915A1
